The text below walks through data of patent US20160311908A1 (MERRIMACK PHARMACEUTICALS, published 2016).

This assay deals with murine EGFR (murine, UniProt Q01279 25-647, limits assumed). The experiment in a line: not described (statement in the xenograft methods).

B1: P3X (antibody, V domains shown)
VH: QVQLVQSGAEVKKPGASVKVSCKASGYAFTSYGINWVRQAPGQGLEWMGWISAYNGNTYYAQKLRGRVTMTTDTSTSTAYMELRSLRSDDTAVYYCARDLGGYGSGSVPFDPWGQGTLVTVSS
VL: EIVMTQSPATLSVSPGERATLSCRASQSVSSNLAWYQQKPGQAPRLLIYGASTRATGIPARFSGSGSGTEFTLTISSLQSEDFAVYYCQDYRTWPRRVFGGGTKVEIK
notes: Fully human monoclonal antibody; Alexa Fluor 488-labelled in flow cytometry; also called P3X monoclonal antibody; third monoclonal antibody
Take B1: the binding result is reported as “no binding”.
